Assay results as given in paper PMC6742479 (Molecular cell, 2015).

Molecular target: T1, GST-scKap104 (S. cerevisiae, UniProt P38217 1-918)
T1 sequence (looked up): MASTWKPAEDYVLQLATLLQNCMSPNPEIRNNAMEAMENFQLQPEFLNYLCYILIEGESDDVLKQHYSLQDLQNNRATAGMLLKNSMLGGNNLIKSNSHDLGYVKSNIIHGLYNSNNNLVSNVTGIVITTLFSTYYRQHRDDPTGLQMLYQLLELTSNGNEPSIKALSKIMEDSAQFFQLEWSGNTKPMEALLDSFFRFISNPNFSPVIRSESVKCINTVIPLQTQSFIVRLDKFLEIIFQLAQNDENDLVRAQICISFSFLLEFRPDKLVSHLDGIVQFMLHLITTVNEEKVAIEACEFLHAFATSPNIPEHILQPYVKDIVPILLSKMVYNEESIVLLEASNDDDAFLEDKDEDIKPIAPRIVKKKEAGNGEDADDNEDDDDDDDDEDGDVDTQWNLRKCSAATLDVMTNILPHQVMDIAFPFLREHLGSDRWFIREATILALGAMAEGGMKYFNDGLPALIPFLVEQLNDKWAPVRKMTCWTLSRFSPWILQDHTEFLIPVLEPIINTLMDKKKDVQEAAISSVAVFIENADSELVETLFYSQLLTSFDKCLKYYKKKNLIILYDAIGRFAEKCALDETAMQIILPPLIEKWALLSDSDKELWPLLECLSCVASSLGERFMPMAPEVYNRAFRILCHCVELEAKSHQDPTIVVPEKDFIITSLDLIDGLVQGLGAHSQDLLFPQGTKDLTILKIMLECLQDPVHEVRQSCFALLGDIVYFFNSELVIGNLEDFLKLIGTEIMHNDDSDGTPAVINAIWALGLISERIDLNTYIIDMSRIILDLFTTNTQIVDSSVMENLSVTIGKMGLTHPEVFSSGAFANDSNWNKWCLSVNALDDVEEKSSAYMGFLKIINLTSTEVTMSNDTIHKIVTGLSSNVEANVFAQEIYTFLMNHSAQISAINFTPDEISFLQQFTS
Assay: pull-down

B1: His6-scAcl4•scRpL4 (complex)
chain 1: MSELEATIRQAKEALAENNAKKALKILKPFKSSLKKENANNVILNEVFADAYLDNGQVEKAYPILARACELDPEGQVGGPDKFFTMGQIMGGQDGVSIITRGIMNISNTGGEMLTNVQVEKIVGGLLSVIEIWMTDLCMEPNAEEQCEELIQKAMELTEGKSPETWSTLGSIKISQQKFGEAYEAFSQAWNFFELKKQEIGSGINENGDTTQKAGLQSEYVDLLQPLLSLTKMCLEVGAYEVALKVIAAVRDIDEDNIEGYYLEGFTYYLMSKLEIFKLNNPEVSLRPENIYEFNQLIQEVPLDLSHEPISQLIYDSRLALSFALQAGVNADSKDEIVQELLGGANALLQEIGGPLDPSELTQIKKGDLVNENEDLEELDIEEEYSD
chain 2: not shown
- binding result: binds

B2: scRpL4 (natural protein)
chain: not shown
- binding result: binds
